Like-named read-outs stand apart in the source and are kept apart here.

The test system of series [1] is d22_PeDa01 (Pseudomonas entomophila).
Series [2] has as its system EcDa01 (Escherichia coli).
Where [3] appears, read: 5caC at all four C of the listed strand sites.
Where [4] appears, read: 5fC at all four C of the listed strand sites.

As for “AAATTTAATTATAAAACGATCGACGACGAAATAATAAAAA (double strand) [40 bp 5caC oligo]”, the activity (fraction deaminated) in series [1] (setting [3]) and in series [2] (setting [3]) was 0 in each case.
For the sequence “AAATTTAATTATAAAACGATCGACGACGAAATAATAAAAA (double strand) [40 bp 5fC oligo]”, the activity (fraction deaminated) in series [1] (setting [4]) was 0; in series [2] (setting [4]) it was 0.01.
Turning to “AAATTTAATTATAAAACGATCGACGACGAAATAATAAAAA (double strand) [40 bp control C oligo]”, the results for the activity (fraction deaminated) in series [1] and in series [2] were 0.14 and 0.6, respectively.

The record behind these values is patent US20230357838.
